The values below are quoted from earlier work in article PMC2725201.

Where two headings read alike, the source gives them in different places.

The target of data set [1] is C5a C5a (Homo sapiens) (UniProt P01031).
Data set [2] addresses C5a-desArg C5a-desArg (Homo sapiens) (UniProt P01031).
Data set [3] deals with C5a C5a (Homo sapiens) (UniProt P01031). This is another data set of the same source.
A further data set concerns the target C3a C3a (Homo sapiens) (UniProt P01024).

Chain of C5aR (P21730 whole entry): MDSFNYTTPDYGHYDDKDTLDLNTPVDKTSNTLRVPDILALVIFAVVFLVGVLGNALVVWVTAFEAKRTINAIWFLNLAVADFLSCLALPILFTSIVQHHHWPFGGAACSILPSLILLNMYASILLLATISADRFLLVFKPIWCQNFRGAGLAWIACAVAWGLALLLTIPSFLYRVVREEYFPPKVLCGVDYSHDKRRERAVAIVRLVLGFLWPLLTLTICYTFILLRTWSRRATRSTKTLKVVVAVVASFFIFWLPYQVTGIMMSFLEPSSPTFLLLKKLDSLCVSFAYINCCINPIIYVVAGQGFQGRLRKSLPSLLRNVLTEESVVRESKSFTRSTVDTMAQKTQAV
Chain of C5a C5a (Homo sapiens) (P01031 675-754): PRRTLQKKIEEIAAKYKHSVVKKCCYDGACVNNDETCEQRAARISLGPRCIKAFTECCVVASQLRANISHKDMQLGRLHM
Chain of C5a-desArg C5a-desArg (Homo sapiens) (P01031 678-750): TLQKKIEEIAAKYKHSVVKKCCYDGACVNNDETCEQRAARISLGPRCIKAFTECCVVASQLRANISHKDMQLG
Chain of C3aR (Q16581 whole entry): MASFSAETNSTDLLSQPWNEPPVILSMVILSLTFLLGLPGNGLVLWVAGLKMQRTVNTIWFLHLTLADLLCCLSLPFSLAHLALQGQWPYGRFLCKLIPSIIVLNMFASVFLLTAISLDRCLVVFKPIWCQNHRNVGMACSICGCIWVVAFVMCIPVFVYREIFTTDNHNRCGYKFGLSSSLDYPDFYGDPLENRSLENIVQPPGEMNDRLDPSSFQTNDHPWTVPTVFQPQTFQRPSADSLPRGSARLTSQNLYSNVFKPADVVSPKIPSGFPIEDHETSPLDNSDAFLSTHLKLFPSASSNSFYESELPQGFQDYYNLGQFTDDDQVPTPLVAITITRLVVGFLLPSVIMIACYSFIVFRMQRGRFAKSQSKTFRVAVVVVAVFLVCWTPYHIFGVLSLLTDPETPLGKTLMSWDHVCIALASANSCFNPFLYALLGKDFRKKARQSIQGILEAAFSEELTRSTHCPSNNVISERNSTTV
Chain of C5L2 (Q9P296 whole entry): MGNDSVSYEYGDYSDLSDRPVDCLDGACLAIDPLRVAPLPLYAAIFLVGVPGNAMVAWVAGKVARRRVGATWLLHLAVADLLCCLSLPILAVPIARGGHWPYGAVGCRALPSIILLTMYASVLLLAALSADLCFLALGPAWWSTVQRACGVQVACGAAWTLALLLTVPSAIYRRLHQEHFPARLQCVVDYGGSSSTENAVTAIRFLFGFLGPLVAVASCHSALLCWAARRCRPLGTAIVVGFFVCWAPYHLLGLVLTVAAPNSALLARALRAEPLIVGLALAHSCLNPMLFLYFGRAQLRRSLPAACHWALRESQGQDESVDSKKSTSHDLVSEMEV
Chain of C3a C3a (Homo sapiens) (P01024 669-751): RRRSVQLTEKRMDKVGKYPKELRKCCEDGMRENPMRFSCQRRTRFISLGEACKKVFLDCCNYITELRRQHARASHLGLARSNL

Regarding C5aR (from UniProt P21730), the values for the Kd (in the data set with C5a C5a (Homo sapiens) [1]; in data set [2]) were 1 nM and 660 nM, respectively.

With C5L2 (from UniProt Q9P296), the Kd with C5a C5a (Homo sapiens) [3] is 2.5 nM.

Take C3aR (from UniProt Q16581): the Kd in the data set with C3a C3a (Homo sapiens) was 1 nM.
